In patent publication US11976099B2, “Compositions and methods for treatment of bone associated diseases” (THE NATIONAL INSTITUTE FOR BIOTECHNOLOGY IN THE NEGEV LTD., priority 2016, dated 2024):
“And” between values parts separate entries of the source, which are not always exact repeats. Identical values can stand only once.

Tests used:
αvβ3 integrin = αvβ3 integrin (Homo sapiens, UniProt P05106+P06756); assay: SPR binding of purified proteins to αvβ3 integrin; conditions: proteins immobilized; integrin 0-200 nM; equilibrium
Experimental: Determination of binding of the soluble purified proteins (M-CSFM and M-CSFRGD variants) to c-FMS and αvβ3 integrin was performed on a ProteOn XPR36 (Bio-Rad, USA). […] Unbound esters were deactivated with 1 M ethanolamine HCl at pH 8.5, and the temperature was set at 25° C. Then, the chip was rotated, and the human c-FMS soluble proteins (Sino Biological, China) were allowed to flow over the chip at 6 different concentrations (0, 12.5, 25, 50, 100 and 200 nM) at a flow rate of 50 μl/min for 490 s, followed by dissociation for 600 s in PBS+0.005% Tween (PBST). For determining αvβ3 integrin binding, the chip was regenerated using 50 mM NaOH at a flow rate of 100 μl/min and analyzed again for c-FMS binding to make sure that the chip had been regenerated. After making sure the chip is regenerated, and different concentrations of […] proteins (0, 12.5, 25, 50, 100 and 200 nM) were allowed to flow over the chip. The interactions obtained were normalized to the initial protein binding RUs to the chip surface. Then, for each concentration, the KD was obtained from the equilibrium binding phase of the sensorgram. To determine the αvβ3 integrin specificity for each M-CSFRGD variant, a new chip was loaded with different RGD binding integrins, as follows: 8.5 μg of α3β1, 8.5 μg of α4β7, 6 μg of α5β1, 8.5 μg of αvβ5, and 8.5 μg of αvβ3 integrin and 3 μg of BSA as a negative control. […]

[1] = test system: CTX-I (carboxy-terminal collagen crosslinks); assay: CTX-I serum ELISA in ovariectomized mice (bone resorption); format: in vivo, C57 Rcc mice; set-up: CTX-I serum-concentration: unit not given here; conditions: for CTX-I serum-concentration: 4 days, individual animals, listed as M-CSF 5.6
Experimental: In order to assess the effect of M-CSF variant on bone resorption, 10 weeks old C57 Rcc mice were ovariectomized resulting in a decrease in estrogen secretion similar to what occurs in osteoporosis. Two weeks post-surgery the mice were treated with M-CSF5.6 variant in three concentrations-0.1 mg/kg, 0.5 mg/kg and 15 mg/kg, in order to test the effect on bone resorption and to find the optimal dosage. For a period of 4 days, 0.1 and 0.5 mg/kg M-CSF5.6 treated mice received subcutaneous injections twice a day, while 15 mg/kg M-CSF5.6 treated mice received a daily subcutaneous injection. Mice were sacrificed 18-24 hours after the final injection. The amounts of type I collagen fragments in the blood were measured using CTX-I (carboxy-terminal collagen crosslinks) ELISA.
Animals were randomly divided into 2 control groups (SHAM, PBS) and 4 treatment groups (0.1, 0.5 and 15 mg/kg M-CSF5.6 and 0.1 mg/kg Alendronate as positive control). Except for the SHAM group, all animals were ovariectomized. *, ^, + represent a Haemolytic-serum sample, an unsuccessful ovariectomy procedure (as determined post mortem) and an outlier, respectively. CTX-I serum-concentration values of mice with unsuccessful ovariectomy were excluded from the analysis.

αvβ3 integrin, sequence (P06756 31-992 limits assumed): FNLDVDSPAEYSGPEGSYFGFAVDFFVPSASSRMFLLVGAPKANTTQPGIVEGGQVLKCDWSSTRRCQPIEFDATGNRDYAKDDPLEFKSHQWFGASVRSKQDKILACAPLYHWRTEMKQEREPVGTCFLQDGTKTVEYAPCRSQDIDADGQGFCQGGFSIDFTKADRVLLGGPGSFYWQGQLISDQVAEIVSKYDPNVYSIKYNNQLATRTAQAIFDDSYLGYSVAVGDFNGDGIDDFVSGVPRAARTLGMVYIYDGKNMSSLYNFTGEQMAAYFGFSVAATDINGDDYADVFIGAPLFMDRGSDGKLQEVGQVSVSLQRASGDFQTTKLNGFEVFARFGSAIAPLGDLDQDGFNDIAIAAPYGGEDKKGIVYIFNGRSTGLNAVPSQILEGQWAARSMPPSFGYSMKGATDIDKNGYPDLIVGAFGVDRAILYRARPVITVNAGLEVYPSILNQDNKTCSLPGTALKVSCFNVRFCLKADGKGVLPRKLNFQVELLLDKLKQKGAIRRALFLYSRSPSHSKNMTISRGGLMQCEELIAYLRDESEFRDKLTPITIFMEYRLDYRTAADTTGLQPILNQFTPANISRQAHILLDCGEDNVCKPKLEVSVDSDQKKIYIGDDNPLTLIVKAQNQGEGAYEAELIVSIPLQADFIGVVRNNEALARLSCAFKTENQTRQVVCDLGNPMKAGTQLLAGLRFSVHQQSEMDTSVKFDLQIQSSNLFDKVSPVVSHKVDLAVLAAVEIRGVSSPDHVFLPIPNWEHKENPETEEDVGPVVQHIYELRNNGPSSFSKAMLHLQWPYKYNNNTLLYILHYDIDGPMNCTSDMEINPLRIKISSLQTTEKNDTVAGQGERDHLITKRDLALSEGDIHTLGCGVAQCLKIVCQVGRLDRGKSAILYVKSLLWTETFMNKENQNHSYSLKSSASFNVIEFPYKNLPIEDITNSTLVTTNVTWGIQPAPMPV
αvβ3 integrin, sequence (P05106 27-718 limits assumed): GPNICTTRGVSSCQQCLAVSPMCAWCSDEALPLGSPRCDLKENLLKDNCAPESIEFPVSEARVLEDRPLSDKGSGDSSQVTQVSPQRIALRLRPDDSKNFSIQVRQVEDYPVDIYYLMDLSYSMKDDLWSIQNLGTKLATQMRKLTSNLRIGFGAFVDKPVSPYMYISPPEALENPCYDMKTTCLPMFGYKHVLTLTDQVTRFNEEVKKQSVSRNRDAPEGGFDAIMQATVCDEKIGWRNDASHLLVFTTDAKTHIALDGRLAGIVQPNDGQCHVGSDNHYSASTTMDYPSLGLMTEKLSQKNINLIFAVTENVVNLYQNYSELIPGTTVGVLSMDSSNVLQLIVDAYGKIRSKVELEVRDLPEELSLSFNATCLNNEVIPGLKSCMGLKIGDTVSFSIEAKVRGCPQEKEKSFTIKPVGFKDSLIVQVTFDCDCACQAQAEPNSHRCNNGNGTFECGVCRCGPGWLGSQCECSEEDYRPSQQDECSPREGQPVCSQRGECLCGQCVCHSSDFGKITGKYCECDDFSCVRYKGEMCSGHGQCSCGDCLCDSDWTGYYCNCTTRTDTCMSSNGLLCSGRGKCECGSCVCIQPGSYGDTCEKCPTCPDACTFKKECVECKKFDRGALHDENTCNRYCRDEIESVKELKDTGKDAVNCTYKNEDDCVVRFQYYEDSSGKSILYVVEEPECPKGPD

Row | Molecule | KD to αvβ3 integrin (αvβ3 integrin) | CTX-I serum-concentration ([1]; 0.1 mg/kg s.c. twice a day, * haemolytic) | CTX-I serum-concentration ([1]; 0.5 mg/kg s.c. twice a day, * haemolytic, ^ unsuccessful ovariectomy, + outlier) | decrease in CTX-I levels compared to the PBS treated animals ([1]; 15 mg/kg) [fold] | CTX-I serum-concentration ([1]; 15 mg/kg s.c. daily, ^ unsuccessful ovariectomy, + outlier) | effect on CTX-I levels at lower doses ([1]; 0.1 and 0.5 mg/kg, hemolytic samples included)
1 | M-CSFM: 158 amino acid M-CSF with cysteine at position 31 replaced by serine (SEQ ID NO: 2) (protein) EEVSEYCSHMIGSGHLQSLQRLIDSQMETSSQITFEFVDQEQLKDPVCYLKKAFLLVQDIMEDTMRFRDNTPNAIAIVQLQELSLRLKSCFTKDYEEHDKACVRTFYETPLQLLEKVKNVFNETKNLLDKDWNIFSKNCNNSFAECSSQGHERQSEGS | did not bind |  |  |  |  | 
2 | 5.6: bispecific M-CSFRGD variant from sort five; M-CSFM loop replaced by XXXRGDXXX motif; binds c-FMS and αvβ3 integrin (protein, left off: small tags and cut ends) EEVSEYCSHMIGSGHLQSLQRLIDTYPRGDMCSITFEFVDQEQLKDPVCYLKKAFLLVQDIMEDTMRFRDNTPNAIAIVQLQELSLRLKSCFTKDYEEHDKACVRTFYETPLQLLEKVKNVFNETKNLLDKDWNIFSKNCNNSFAECSSQGHERQSEGS |  | 58.19 and 44.06 and 130.4* and 195.2* and 53.32 and 46.69 | 53.33 and 209.7+ and 47.65*^ and 64.67 and 70.37* and 83.09* | ~2 | 33.94 and 33.49 and 214.7^+ and 46.82 and 30.85 and 40.68 | ineffective
